Measured values published in the RNAGym collection of RNA variant scans (doi:10.7554/elife.80360).

B1: HDV Ribozyme (parent)
chain: GGCCGGCAUGGUCCCAGCCUCCUCGCUGGCGCCGGCUGGGCAACAUUCCGAGGGGACCGUCCCCUCGGUAAUGGCGAAUGGGACCCA

Variants of: B1
Test: self-cleavage, relative activity (ratio to wild type); higher = more cleavage; co-transcriptional

Going from G2C C26A to G2C U20A, the self-cleavage falls from 0.314 to 0.0361.

Compared with G2C G73A, G2C G73C is higher in self-cleavage: 0.0252 for the first, 0.106 for the second.

First: G2C G76A
Second: G2C G76C
The self-cleavage of the first is higher: 0.13 for the first, 0.0747 for the second.

First: G2C C41G
Second: G2C C41A
The self-cleavage of the first is higher: 0.103 for the first, 0 for the second.

Going from G2C C44G to G2C C44A, the self-cleavage falls from 0.0656 to 0.0449.

First: G2C C44U
Second: G2C G50C
The self-cleavage of the first is higher: 0.0453 for the first, 0.0277 for the second.

First: G2C G50A
Second: G2C G29A
The self-cleavage of the first is lower: 0.138 for the first, 0.155 for the second.

First: G2C G29U
Second: G2U A87C
The self-cleavage of the first is lower: 0.0494 for the first, 0.0661 for the second.

G2C and G2U are the same in self-cleavage: 0.0584 for the first, 0.0584 for the second.

Going from G2C C4U to G2A G81C, the self-cleavage falls from 0.475 to 0.115.

First: G2A G81U
Second: G2A G81A
The self-cleavage of the first is lower: 0.0346 for the first, 0.0692 for the second.

Going from G2C U12A to G2C U12G, the self-cleavage falls from 0.17 to 0.0426.

Going from G2C C66G to G2A U9C, the self-cleavage rises from 0.0978 to 0.113.

Compared with G2A U9G, G2C U47C is lower in self-cleavage: 0.192 for the first, 0.102 for the second.

First: G2C C58G
Second: G2C C58A
The self-cleavage of the first is higher: 0.13 for the first, 0 for the second.

First: G2C U27C
Second: G2C U27G
The self-cleavage of the first is higher: 0.0496 for the first, 0.0437 for the second.

Going from G2C C13A to G2C U60C, the self-cleavage falls from 0.0707 to 0.0545.

Compared with G2C C30A, G2C C30G is lower in self-cleavage: 0.0875 for the first, 0.0594 for the second.

First: G2U A70G
Second: G2U A70U
The self-cleavage of the first is higher: 0.0715 for the first, 0.0548 for the second.

Compared with G2U A70C, G2C U37C is higher in self-cleavage: 0.0373 for the first, 0.17 for the second.

First: G2C G39U
Second: G2U C7A
The self-cleavage of the first is higher: 0.0246 for the first, 0.013 for the second.

First: G2C C75A
Second: G2C C75G
The self-cleavage of the first is lower: 0 for the first, 0.0314 for the second.

First: G2C U9C
Second: G2C G52A
The self-cleavage of the first is higher: 0.128 for the first, 0.113 for the second.

First: G2C A71G
Second: G2U A56U
The self-cleavage of the first is higher: 0.021 for the first, 0.016 for the second.

Going from G2U A56C to G2U A42U, the self-cleavage rises from 0.0405 to 0.0647.

Going from G2C G31U to G2C G31C, the self-cleavage falls from 0.109 to 0.0237.

Going from G2U C4G to G2C C61A, the self-cleavage rises from 0.0228 to 0.0391.

First: G2C U69C
Second: G2C C18G
The self-cleavage of the first is higher: 0.175 for the first, 0 for the second.

Going from G2A U79C to G2A U79G, the self-cleavage rises from 0.0804 to 0.089.

First: G2A U79A
Second: G2C G81A
The self-cleavage of the first is lower: 0.0225 for the first, 0.0511 for the second.

Going from G2C U79G to G2C U79C, the self-cleavage rises from 0 to 0.101.

Going from G2U A77U to G2U A77G, the self-cleavage falls from 0.0244 to 0.

Going from G2C A42U to G2C C57A, the self-cleavage rises from 0.0475 to 0.086.

Compared with G2C C14G, G2C A70U is lower in self-cleavage: 0.0773 for the first, 0.0601 for the second.

Going from G2C A70G to G2A U46G, the self-cleavage rises from 0 to 0.0817.

Compared with G2A U46A, G2C G35C is higher in self-cleavage: 0.0601 for the first, 0.124 for the second.

Going from G2C G35U to G2C G35A, the self-cleavage falls from 0.0747 to 0.0623.

Compared with G2C G34U, G2C G34A is lower in self-cleavage: 0.0966 for the first, 0.0504 for the second.

First: G2C C64A
Second: G2C C64U
The self-cleavage of the first is higher: 0.0652 for the first, 0.0219 for the second.

Compared with G2C C64G, G2C G17C is lower in self-cleavage: 0.0804 for the first, 0.0536 for the second.

G2C G17A and G2U A45G are the same in self-cleavage: 0 for the first, 0 for the second.

First: G2U A45C
Second: G2C G25A
The self-cleavage of the first is lower: 0 for the first, 0.0528 for the second.

Going from G2C C84G to G2C C84A, the self-cleavage falls from 0.0639 to 0.0462.

Compared with G2C C63A, G2A U69G is higher in self-cleavage: 0.0213 for the first, 0.219 for the second.

First: G2A U69C
Second: G2C C48G
The self-cleavage of the first is higher: 0.332 for the first, 0.0545 for the second.

First: G2C C48A
Second: G2C C32U
The self-cleavage of the first is lower: 0 for the first, 0.101 for the second.

First: G2C C32A
Second: G2C C32G
The self-cleavage of the first is higher: 0.0712 for the first, 0.0554 for the second.

Going from G2C G38A to G2C G38C, the self-cleavage falls from 0.0747 to 0.0475.

Going from G2C G59C to G2U A8G, the self-cleavage falls from 0.0923 to 0.0272.

Going from G2U A8U to G2C A16G, the self-cleavage falls from 0.134 to 0.131.

First: G2C A16U
Second: G2C A51G
The self-cleavage of the first is lower: 0.0282 for the first, 0.0831 for the second.

First: G2U A43C
Second: G2U A43U
The self-cleavage of the first is lower: 0.0292 for the first, 0.0866 for the second.

Going from G2C C36U to G2C C36A, the self-cleavage rises from 0.0799 to 0.138.

First: G2C G54U
Second: G2C G54A
The self-cleavage of the first is lower: 0.0723 for the first, 0.0777 for the second.

Going from G2C G80C to G2C G80U, the self-cleavage falls from 0.154 to 0.0392.

G2C G82U and G2C G10C are the same in self-cleavage: 0 for the first, 0 for the second.

First: G2C G10U
Second: G2C G10A
The self-cleavage of the first is lower: 0.056 for the first, 0.145 for the second.

Going from G2C A78U to G2C A78G, the self-cleavage falls from 0.132 to 0.0875.

First: G2A U47A
Second: G2C A56G
The self-cleavage of the first is lower: 0.0314 for the first, 0.0332 for the second.

First: G2C A56U
Second: G2C A56C
The self-cleavage of the first is lower: 0.0482 for the first, 0.0678 for the second.

Going from G2C A87G to G2C A87C, the self-cleavage falls from 0.0671 to 0.0523.

Going from G2C A87U to G2C A77G, the self-cleavage falls from 0.0825 to 0.0346.

First: G2A U65A
Second: G2C G28U
The self-cleavage of the first is higher: 0.173 for the first, 0.014 for the second.

Compared with G2C G68C, G2C G68U is higher in self-cleavage: 0.0244 for the first, 0.0449 for the second.

Compared with G2C G68A, G2C A8C is higher in self-cleavage: 0.0504 for the first, 0.0639 for the second.

G2C A8U and G2U A16C are the same in self-cleavage: 0 for the first, 0 for the second.

Going from G2C C15U to G2U A78U, the self-cleavage falls from 0.0563 to 0.

Going from G2U A78C to G2C C33G, the self-cleavage rises from 0.0198 to 0.0514.

Going from G2C C33U to G2C G5U, the self-cleavage rises from 0.0608 to 0.145.

Going from G2C G5C to G2C C62U, the self-cleavage falls from 0.237 to 0.0841.

Compared with G2A U12C, G2C U23G is lower in self-cleavage: 0.0627 for the first, 0.0268 for the second.

First: G2C U23A
Second: G2U A51U
The self-cleavage of the first is lower: 0 for the first, 0.0799 for the second.

Going from G2A G82C to G2C G11A, the self-cleavage falls from 0.0639 to 0.0455.

First: G2C C19A
Second: G2C C19G
The self-cleavage of the first is higher: 0.106 for the first, 0.102 for the second.

G2C C85A and G2C C85U are the same in self-cleavage: 0.0287 for the first, 0.0287 for the second.

Compared with G2C C85G, G2C G74U is higher in self-cleavage: 0.0563 for the first, 0.1 for the second.

Compared with G2C G74C, G2C G74A is higher in self-cleavage: 0.0308 for the first, 0.113 for the second.

Going from G2C C86U to G2C C86A, the self-cleavage rises from 0.0779 to 0.128.

Going from G2C G55A to G2C G67A, the self-cleavage falls from 0.0941 to 0.0449.

Compared with G2C U65A, G2C U65C is higher in self-cleavage: 0 for the first, 0.14 for the second.

First: G2U A83G
Second: G2U A83C
The self-cleavage of the first is higher: 0.0815 for the first, 0.0594 for the second.

Going from G2U A83U to G2U A71U, the self-cleavage falls from 0.0536 to 0.0287.

Going from G2C G53A to G2C U72A, the self-cleavage falls from 0.108 to 0.106.

Variant G2C G6U has a self-cleavage of 0.0601.
